± gives the standard deviation.
Test: protein stability index of a GFP-peptide fusion (GPS, HEK-293T) (PSI 1-6); higher = more stable
Details: c terminus: a fixed tail appended
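Note: 24-mer peptide tiles fused after GFP, lentivirally expressed, FACS-sorted into six equal bins by GFP/DsRed ratio, decoded by Illumina sequencing, PSI is the read-weighted mean bin number.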

Row | Sequence | protein stability index (treatment: DMSO) | protein stability index (treatment: MLN4924 1 uM, 8 h)
1 | CGFTVAQIITSLVFHLPFYSSNQL [OR10K2] | 3.15 ± 0.51 | 2.95 ± 0.41
2 | CGGYNGEVILGDIWKLNLQTFQWV [KLHDC10] | 2.44 ± 0.85 | 2.11 ± 0.71
3 | CNDGRIVIWDFLTRGIAKIISAHI [RBBP5] | 3.03 ± 0.42 | 2.66 ± 0.41
4 | CPCCFGRDCLVLNQGYLSEAGASL [PI4K2A] | 2.44 ± 0.2 | 2.62 ± 0.49
5 | CQDQNVPVENFFVKCNGALINTSD [SDE2] | 3.3 ± 0.23 | 3.27 ± 0.47
6 | CQFRPPVRVNDGGGSHPSRPNSRH [VDR] | 4.55 ± 0.34 | 4.77 ± 0.076
7 | CQGQPQGKAVVSHSKGHKSSRQEK [ELOA2] | 5.38 ± 0.22 | 5.37 ± 0.1
8 | CQVGGIEALVRTVLRAGDREDITE [CTNNB1] | 3.28 ± 0.46 | 3.21 ± 0.46
9 | CREPSPKMDFKTNILLKNLVTIAR [TRIM43] | 2.8 ± 0.59 | 2.35 ± 0.49
10 | CSIGFAVRYLNAYTGIVLLRCRKE [POP5] | 3.13 ± 0.43 | 2.99 ± 0.57
11 | CSNLVKTRRRAVGWWKRLFTLKEE [ARL6IP1] | 2.42 ± 0.28 | 2.6 ± 0.21
12 | CSSKRSSYPVMGFEFQVRVCDSCY [WDFY1] | 2.66 ± 0.9 | 2.32 ± 0.23
13 | CSSSNLAGNDDSFGSLPSPKELSS [DLC1] | 4.37 ± 0.15 | 4.37 ± 0.27
14 | CTPGGTTIYGLHALEQGGLRAATM [PYCR3] | 2.36 ± 0.73 | 2.25 ± 0.72
15 | CTQVTQDGDIPNIPAEENASTSTP [FAM189A2] | 5.65 ± 0.2 | 5.5 ± 0.33
16 | CVLYACFILGRLCVPVFANMSREP [SOAT2] | 3 ± 0.36 | 3.31 ± 0.21
17 | CVTPNGRPISGTAVAHKTPRCPGS [SMOC2] | 2.98 ± 0.67 | 3.89 ± 0.34
18 | DAAIHGFRETEKSRWSEASRAILQ [ALKBH7] | 3.8 ± 0.51 | 3.83 ± 0.66
19 | DCSDILRLIKELAKYEYMEEQVIL [SAT1] | 1.95 ± 0.51 | 2.23 ± 0.1
20 | DDMPIGRNVLELNDVRQSANYTCV [PTPRD] | 3.72 ± 0.28 | 3.77 ± 0.44
21 | DDNSCEDLEEERREEEEKTPPETK [PCMTD2] | 5.73 ± 0.34 | 5.54 ± 0.25
22 | DELQQSFQKSHNSLQRWEHLKKVA [PRIM1] | 3.76 ± 0.38 | 3.88 ± 0.45
23 | DEPYEKVVDRIQSSGKNVTLLVCG [PDZK1] | – | 3.5 ± 0.36

Row | Sequence | protein stability index (treatment: DMSO) | protein stability index (treatment: MLN4924 1 uM, 8 h)
24 | DEYQYSFWDLFRSKDNMRTRIMIG [SLC2A12] | 1.85 ± 0.38 | 2.14 ± 0.38
25 | DFEHRPKAPVVECSITGDSSRVIA [WDR88] | 4.36 ± 0.26 | 4.49 ± 0.17
26 | DGEILFSLLQKVSPVAHKHLSRQK [TBC1D10A] | 2.36 ± 0.11 | 2.48 ± 0.37
27 | DGGSSLASGSTQRQPPPPAPQHPQ [FBXO28] | 5.22 ± 0.34 | 5.18 ± 0.35
28 | DHMREAGDVCYADVYRDGTGVVEF [SRSF1] | 3.15 ± 0.28 | 3.18 ± 0.23
29 | DHVHILDTETFTWSQPITTGKAPS [KLHDC2] | 3.82 ± 0.3 | 3.84 ± 0.4
30 | DIKRLLVNFMYLQSLLQPKSSSVD [SMG5] | 2.97 ± 0.54 | 3.08 ± 0.51
31 | DITDDCICDLARSIDFNKDGHIDI [PPEF2] | 3.87 ± 0.19 | 4.05 ± 0.39
32 | DLKDDGNMMKVLRGHQNWVYSCAF [WSB1] | 2.3 ± 0.29 | 1.87 ± 0.22
33 | DLKPENILFVNSEFETLYNEHKSC [CLK3] | 3.38 ± 0.37 | 3.48 ± 0.26
34 | DLQNLLGFTPEELHAILGVQPDTE [ETS2] | 3.25 ± 0.21 | 3.45 ± 0.29
35 | DLVLDEEGARAAGLGELGAALLQL [ESRRA] | 3.94 ± 0.19 | 4.05 ± 0.17
36 | DMELHRMSRMQSKEYPVVPRSTVR [TBX5] | 4.35 ± 0.07 | 4.33 ± 0.15
37 | DNAVKNHWNSTIKRKVDTGGFLSE [MYBL2] | 3.87 ± 0.2 | 3.71 ± 0.14
38 | DNDHKEAVGKMGFVVTMLKLIQKK [ZER1] | 2.21 ± 0.37 | 2.07 ± 0.34
39 | DPGHCFAESRELPVRCAGDWLPRG [ALG2] | 3.1 ± 0.38 | 3.05 ± 0.25
40 | DPNSQVGACIVNSENKIVGIGYNG [DCTD] | 4.56 ± 0.15 | 4.56 ± 0.48
41 | DQLYRRKKDNHALVRETDELRRNH [ELOA2] | 4.53 ± 0.42 | 4.48 ± 0.43
42 | DRLASNVAKRKSSMPQKFLGDKGL [IKZF1] | 3.95 ± 0.11 | 4.05 ± 0.17
43 | DSAVENLLLLSKAKLVPSEREASP [IKZF1] | 4.15 ± 0.23 | 4.59 ± 0.14
44 | DSLAKEIQYLKDLIEEVRKARGKK [ATF4] | 2.25 ± 0.31 | 2.14 ± 0.44
45 | DSLGGSQEMVQRPQPHRNRAGLDL [TRAF3IP2] | 4.87 ± 0.23 | 4.58 ± 0.41
46 | DSMEGKRSPYAGLQLGAAKKPPVT [TRIM29] | 4.58 ± 0.35 | 4.52 ± 0.18

Row | Sequence | protein stability index (treatment: DMSO) | protein stability index (treatment: MLN4924 1 uM, 8 h)
47 | DSSTSPKGKQPTSAENSVAKKEDK [NANOGP8] | 5.57 ± 0.36 | 5.58 ± 0.19
48 | DTNLGRLEDGQTPLHLSALRDDVL [ASB7] | 4.59 ± 0.1 | 4.56 ± 0.21
49 | DTQVNPVGSVSVDCGPSRADRCSP [FBXO34] | 5.09 ± 0.32 | 5.15 ± 0.28
50 | DVCSFPNALVTKLLLDCGAEVNAV [FEM1B] | 2.48 ± 0.83 | 2.44 ± 0.48
51 | DVDITLSSEAFHNYMNAAMVHINR [RTN3] | 2.18 ± 0.087 | 2.32 ± 0.25
52 | DVGRYIDHYAAIKKAWDDLKKYLE [FBXO3] | 2.31 ± 0.34 | 2.97 ± 0.52
53 | DVLLTLKHTVKEHECKLTQEILEL [IQUB] | 2.12 ± 0.2 | 1.96 ± 0.47
54 | DWYQKQTPTSPECDYSQYFKTIEE [KRT15] | 3.86 ± 0.23 | 3.97 ± 0.26
55 | EALLKLLAGLTRPDVRPPLGRGLV [SEPHS2] | 2.22 ± 0.45 | 2.32 ± 0.24
56 | EALRALQEGLWLDRGTRVVFIDFS [PKD2L1] | 2.3 ± 0.72 | 2.34 ± 0.35
57 | EAYTKICDPGLTAFEPEALGNLVE [CAMK2D] | 3.91 ± 0.25 | 3.62 ± 0.27
58 | ECDNMLMLLSVSQSMSEEEREKVT [SEPHS2] | 4.58 ± 0.12 | 4.58 ± 0.24
59 | ECKQLSESQVKSLCEKAKEILTKE [PPP2CA] | 4.64 ± 0.2 | 4.82 ± 0.18
60 | ECLKKFNARRKLKGAILTTMLATR [CAMK2B] | 2.98 ± 0.32 | 2.94 ± 0.29
61 | EDEAGGRFVAFSGEGQSLRKKGRK [UFD1] | 5.51 ± 0.25 | 5.41 ± 0.46
62 | EDITKGTQSLPTASASKFPSSGPV [AUP1] | 5.19 ± 0.19 | 5.08 ± 0.1
63 | EDPFYWVSPGVLVLLAVLPVLLLQ [MOG] | 2.52 ± 0.41 | 2.38 ± 0.69
64 | EDQYEENSHLTSVPHWINSNTLGF [ETS2] | 3.2 ± 0.34 | 3.13 ± 0.3
65 | EDRKLPAPGADVKVHRARKTMPKS [EHMT1] | 5.28 ± 0.31 | 5.19 ± 0.18
66 | EDRLSLKFLPSSEEDNDDAKILPS [DRICH1] | 5.34 ± 0.23 | 5.33 ± 0.11
67 | EDSKRWSKMDQLAKELTAEKRLEG [CHGA] | 4.97 ± 0.33 | 5.11 ± 0.26
68 | EDSYRKQVEVDAQQCMLEILDTAG [RAP1B] | 4.62 ± 0.13 | 4.5 ± 0.14
69 | EDTDPSTLSFNMSDKYPIQDTELP [EDARADD] | 5.11 ± 0.12 | 4.89 ± 0.089

Row | Sequence | protein stability index (treatment: DMSO) | protein stability index (treatment: MLN4924 1 uM, 8 h)
70 | EEEMNALRGQVGGEINVEMDAAPG [KRT17] | 5.45 ± 0.34 | 5.53 ± 0.13
71 | EEERAQDRIATTDDTTAMASASSS [MAGEA10] | 5.66 ± 0.17 | 5.42 ± 0.1
72 | EEERPLPEKEYQRQVWLLFEYPES [KCNA1] | 3.33 ± 0.12 | 3.63 ± 0.28
73 | EEGFMTAELAGVIKRLWKDSGVQA [GNAI1] | 3.19 ± 0.49 | 3.53 ± 0.58
74 | EELNNGEPQTEHQQESESEIDSVP [MIA2] | 5.6 ± 0.24 | 5.52 ± 0.43
75 | EELRKFSSLCYKQRIKSQERETEA [MOG] | 4.47 ± 0.28 | 4.22 ± 0.076
76 | EEMAKSSRASAARVGQLQEALNER [LRRC45] | 4.97 ± 0.46 | 5.12 ± 0.28
77 | EETRVWHRRDGKWQNVHFHCSGAP [CAMK2B] | 3.1 ± 0.15 | 3.11 ± 0.32
78 | EETTSQDWGTPRELTFSYIAFDGV [RTN2] | 2.65 ± 0.15 | 2.8 ± 0.61
79 | EEVRQLLETMARNEVIADINCKGR [OSBPL1A] | 3.16 ± 0.33 | 3.01 ± 0.46
80 | EGATLLLRGLCANTVLRFLDLKGN [LRRC45] | 2.6 ± 0.4 | 2.98 ± 0.77
81 | EGDLPQMEVGSGSRELSLRPSRSG [EID1] | 5.07 ± 0.31 | 5.36 ± 0.35
82 | EGHPFKAYLELEITLSQEQIQKYT [RTN1] | 2.33 ± 0.67 | 2.13 ± 0.26
83 | EGVKRYEQEHAAIQDKLFQVAKRE [CHCHD6] | 4.84 ± 0.32 | 4.78 ± 0.24
84 | EIFAIDLRCGNQGKGWKATRLFHD [DCAF4] | 2.24 ± 0.44 | 2.12 ± 0.22
85 | EISKDNSCKENCTCSSCLLRAPTI [EDARADD] | 4.67 ± 0.29 | 4.86 ± 0.14
86 | EKAKAFWAMRRSYEAIAKHNQVEA [TRIM35] | 2.83 ± 0.34 | 3.18 ± 0.26
87 | EKIAAEIAQAEEQARKRQEEREKE [SMARCE1] | 5.44 ± 0.17 | 5.74 ± 0.25
88 | EKILRELSEEEEDEEEEEEEEEEG [KCNA4] | 5.65 ± 0.2 | 5.69 ± 0.17
89 | EKIWRPNRVFSLQDLCCRAIVSCT [RAB40C] | 2.76 ± 0.19 | 2.88 ± 0.14
90 | EKKDDENIPMETEETHLEETTESQ [SMARCE1] | 5.58 ± 0.43 | 5.39 ± 0.57
